Changes are numbered by the printed parent chain.
B1: VHH clone Ig-S506 (cluster Ig-7) (VHH)
VHH: QVQLVESGGGLVQAGGSLRLSCAASGFTFDDYVIGWFRQAPGKEREGVSCISSSDGSTNYADSVKGRFTISSDNAKNTVYLQMNSLKPEDTAVYYCAEGPTVLDGCIYDSGSYYFSWGQGTQVTVSS
B2: VHH clone Ig-S8492 (cluster Ig-7) (VHH)
VHH: B1 VHH with S57R, N59D, E98A, D109Y
B3: VHH clone Ig-S1139 (cluster Ig-7) (VHH)
VHH: B1 VHH with N59Y, Y108V
B4: VHH clone Ig-S6584 (cluster Ig-7) (VHH)
VHH: B1 VHH with V33I, I34V, S52R, I70V, G111E
B5: VHH clone Ig-S675 (cluster Ig-7) (VHH)
VHH: B1 VHH with S25T, P41S, S52R, S57D, N59Y, I70V, Y108V, G111E

Biological target: Fab of trastuzumab (human)
Assay: SPR; Fab of trastuzumab amine-coupled to a CM5 chip (1,000 RU), VHH as analyte in a 1/2 dilution series; Biacore X100, HBS-EP (10 mM HEPES pH 7.4, 150 mM NaCl, 3 mM EDTA, 0.005% P20), 20°C, 10 µL/min, association 360 s, dissociation 800 s; 1:1 binding model

Row | Kd | koff | kon | Binder
1 | 246 nM | 0.0073 s⁻¹ | 29700 M⁻¹ s⁻¹ | B1
2 | 123 nM | 0.000245 s⁻¹ | 1990 M⁻¹ s⁻¹ | B2
3 | 233 nM | 0.00554 s⁻¹ | 23700 M⁻¹ s⁻¹ | B3
4 | 5.99 nM | 0.000221 s⁻¹ | 36900 M⁻¹ s⁻¹ | B4
5 | 0.155 nM | 4.71e-05 s⁻¹ | 303000 M⁻¹ s⁻¹ | B5

From publication PMC10825579
